Laboratory results from the NTF2 design screens of Basanta et al. (2020).

Test: protease stability score; higher = more stable; yeast display proteolysis, trypsin and chymotrypsin;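 also: log10 excess protease needed over predicted unfolded state with 0 meaning unfolded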

Question: For “DQELRDQVERLLHLEKHGDNDEVLRQFDPNAKAQVGDTRYHGMTTAVRDMVRQQNEARFSFEIHHVSVSGDRVVIDAVYVKDHNGKPSTRRVHIQMHFRNGKVQERRQNDDG”, which protease stability score is on record?
Answer: The protease stability score was 0.782.

Question: Which protease stability score does the source give for “DEERQKEALKVHKKGDFDKILDQADEDVQVVIGDKKYHGREEATTALKKILDSIDHLKFESITIQNGRVRVDAILEFNGQQNRVIIVVEVHNGKVKKVEIRVTDPSQEDKLKKRVD” here?
Answer: Its protease stability score is -0.203.

Question: With “DEEDVDRFAKTFAEIFQSGNPENIREMMDPNARLHVGERTYHGRETIVQYLKRLRRDVDSIHLVSITNHGESIVIKVSLDVNGQHVVVHINVHFQNGRIKSMSMTYRDEEDRKKYEG” as the sequence, how does the protease stability score read?
Answer: The protease stability score was 2.

Question: Which protease stability score does the source give for “DQEEAEKVMKQWMEAVQKGDEDTVRKLYDPNVEWINADTKEQDVEQFRKAIKKAKDKGVEFQVRKAKVEGDRVQMHYDVRIGNETVTFTVEMDVQGGKVEWLRVKVDEKARKALTKG” here?
Answer: Its protease stability score is 1.22.

Question: With “DESLRKLLERIWRALTSGDPDELRKLADEDAKFQIGDKRINGMNEAAERWATRVRQLRVRIEDVKQHVEGDKVEAHLDVVREKNGQPQKHEEHVRMRAEGDRAKELVIQISQ” as the sequence, how does the protease stability score read?
Answer: The protease stability score was 0.031.

Question: Which protease stability score does the source give for “DEHAFKRIDEMLTAFQKNDPNKIQEYMDENVKVQYGDKSVHGRDEIAKSKQETREHLRLEIRIENYDVNGDTIHVHAKVIFNVNGDPLKFEVDIVARLHNGKIKSMQLQFSHEQQKKVES” here?
Answer: The protease stability score was 0.682.

Question: For “ERELVSIAQDILHALEHGDPQQFRDLVDPNAKFKVGDHEWHGRESAANEYAKEQRKMNNKYDRVTWDNNGDHIRARFNWVNHSNGEPKRKQATQELVLHNGRLVSMKQDDTQ”, which protease stability score is on record?
Answer: The protease stability score was -0.052.

Question: Which protease stability score does the source give for “DDRIRQVVEEWWKAVETNDPDKAKENVDKDVRVEVGDKQFRGSETLEKRIRDEKDHARVVVRMQSVSVHGDTVDVTYNVVVEVNGNPLRFKAQAFFRARNGRMQSIQFSFSKEDKKRVDG” here?
Answer: The protease stability score was 0.916.

Question: Which protease stability score does the source give for “DEEKVAQKFAEEMNKVWEQGDPDRMAELADEDVRMKYGDKEIHGRDDVEDHLRTVFKEVDSASIDVKRVSNHNGRVDIKASITMRDNGSHSNTNIDIKAEVSGDKVKLKEQHHQ” here?
Answer: Its protease stability score is -0.067.

Question: Which protease stability score does the source give for “DNETVDEALKAFNKNDERNMMRLADENAEMEIGDTEYHGQEQVQTLLQKLNQQVDHREFHSIETEPNRIRVDYRAVFNGRDIRVHVHLEFENGRLTRVRFDVRDPRQQKHLQDLLK” here?
Answer: The protease stability score was 0.344.

Question: For “DEEELDRLQKQLERNDWETFVRQADENVKVKYGDRSLHGHEDFNKYMKRLHDQVDHYQLNRVTNHGDHLQARVVFRFNGQNIDMTFEVRVHNGRIQEVVFHFTDPRTHKQFKENMD”, which protease stability score is on record?
Answer: Its protease stability score is 1.42.

Question: With “DEEEDEKFVEFLKNVERGNEDKLRELVPPDAKNQVGDTVVEGRDEWLKKLTSELKKSRVTYNVKSVSASNGRMSLVVDVTVDENGRPQKRDLRIDATVHNGKWQKVHLKFDS” as the sequence, how does the protease stability score read?
Answer: The protease stability score was 0.342.

Question: Which protease stability score does the source give for “DDKQAKELVKLMHTGDWETLINNMDPNARVVIGNKTYHGRHDAQKLLELWQKRVDHQDIHDVKARGDQLQVNMVFVINGVKFELVITVKFHNGRIESVQYDVTDRDQERKLEDLMS” here?
Answer: Its protease stability score is 1.67.

Question: Which protease stability score does the source give for “DERQVKEIALEAAKAYISGNKEKLKKLGKEDVELEAGSHKYKGVEQMATVVEQFKKYGVELQITDVKVDGDKVKMRIQVHAGGTTWEFTMEIQVDGGRVDKMTIHLSEEMVKRIQKG” here?
Answer: Its protease stability score is 1.02.

Question: For “DEEAVKRANEMVEAWEHGDESRFMKLVDPNAQVRVGDKEVHGKEDMNRSIQEESRQLRVHRRVESVESQGNEVKIDLVFTQNVNGQPIQQRVDVVITFRNGKAVDIQLDIPEDQQQQHRR”, which protease stability score is on record?
Answer: The protease stability score was -0.131.

Question: Which protease stability score does the source give for “DEEHIEEVQRRFISAFKDGDEDQMQRQMDPNVKLVIGDTTIHGRESAAKSLANIVRKVDHVDVESYEVRGNQASMIMRVEINGKDDRLDFQIEIHNGHIKRLEIQSS” here?
Answer: The protease stability score was 0.692.

Question: For “DEDAYRKLDTFKKVEEKGDTDRLRKLADPNVEIQVGDRQIRGMHHFAKDVHDKKRHIDIDVHIDEYDVDGNKIQIHAHNKQHVNGKPFNFTVVMWVRIHNGSIKKMKYRIDPDQLRKIRR”, which protease stability score is on record?
Answer: The protease stability score was 0.227.

Question: For “DDEKLANEFQTKFRSVMETNDEENMRKLADKDARLNVGDDDVHGREQVARYLAEVLRRVDTFRVRYEDVDIRNGQVRVTMEIHNNHNGSDRTDRVHLQMEVTGDTASLKRITEG”, which protease stability score is on record?
Answer: Its protease stability score is 0.259.

Question: Which protease stability score does the source give for “DEDTLKKLFEQVFKYVQKGNTKELKKVIDESVEFQFGDHRYKGVDQYIKLIKEFKDRGVQFRVEEAQQKDDDVTMRTKIRYGNKEVTVKAQARYDGGHAKHFRVELSEEAKKALKTG” here?
Answer: The protease stability score was 0.292.
